Experimental data: PMC6902028, “Elucidating the Immune Evasion Mechanisms of Borrelia mayonii, the Causative Agent of Lyme Disease” (Frontiers in Immunology, 2019)

Target: T1, complement regulator factor H (FH) (human, UniProt P08603 19-1231)
T1 construct: source: bought: Complement Technology (purified); native, in non-immune human serum (NHS, NHS-EDTA)
Test: ELISA; CspA of B. mayonii MN14-1420 (5 μg/ml) immobilised, increasing concentrations of FH; non-linear regression, one-site specific binding model
Details: both partners purified

T1 sequence (P08603 19-1231): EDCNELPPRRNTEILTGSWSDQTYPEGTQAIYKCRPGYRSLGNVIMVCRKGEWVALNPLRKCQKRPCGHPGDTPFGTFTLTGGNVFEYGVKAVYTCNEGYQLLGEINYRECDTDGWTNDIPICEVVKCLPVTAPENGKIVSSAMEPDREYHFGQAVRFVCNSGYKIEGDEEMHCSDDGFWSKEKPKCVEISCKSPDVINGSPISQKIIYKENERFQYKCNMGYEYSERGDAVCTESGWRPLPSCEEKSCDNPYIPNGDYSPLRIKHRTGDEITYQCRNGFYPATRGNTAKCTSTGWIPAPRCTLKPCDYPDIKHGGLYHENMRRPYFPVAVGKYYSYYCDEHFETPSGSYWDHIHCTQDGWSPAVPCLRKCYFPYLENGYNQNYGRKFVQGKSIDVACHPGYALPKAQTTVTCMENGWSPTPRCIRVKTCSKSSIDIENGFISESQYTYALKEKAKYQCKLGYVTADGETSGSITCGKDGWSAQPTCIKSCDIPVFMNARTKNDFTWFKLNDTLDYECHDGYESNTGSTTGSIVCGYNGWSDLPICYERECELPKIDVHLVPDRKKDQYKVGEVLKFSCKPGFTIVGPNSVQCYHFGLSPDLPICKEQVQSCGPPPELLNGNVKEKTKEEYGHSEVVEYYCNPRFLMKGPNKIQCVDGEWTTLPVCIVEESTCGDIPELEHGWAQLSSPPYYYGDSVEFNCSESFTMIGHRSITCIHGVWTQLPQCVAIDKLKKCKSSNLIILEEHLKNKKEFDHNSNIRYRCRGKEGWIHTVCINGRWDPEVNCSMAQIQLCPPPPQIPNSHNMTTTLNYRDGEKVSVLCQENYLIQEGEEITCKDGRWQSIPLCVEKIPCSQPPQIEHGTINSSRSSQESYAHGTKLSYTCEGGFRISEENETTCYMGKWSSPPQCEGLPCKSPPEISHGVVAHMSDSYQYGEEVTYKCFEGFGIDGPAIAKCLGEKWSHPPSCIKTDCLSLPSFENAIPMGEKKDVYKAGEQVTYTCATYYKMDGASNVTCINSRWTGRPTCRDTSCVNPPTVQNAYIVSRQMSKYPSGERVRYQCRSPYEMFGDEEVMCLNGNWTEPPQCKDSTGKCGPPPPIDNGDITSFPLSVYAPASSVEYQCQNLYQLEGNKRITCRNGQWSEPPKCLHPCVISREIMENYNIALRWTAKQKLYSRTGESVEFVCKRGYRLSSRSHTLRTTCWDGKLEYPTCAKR

B1: His6-tagged CspA of B. mayonii MN14-1420 (CspA-like protein Bmayo_04535) (natural protein)
chain: TANPIDPKANGNIKPKNNINTKKNTNLEKNTQNFENESENPRSYNQKLLEATIKELKVIGKNLEDQRKEENIQIAKIVDEKFDFLGTFKVGPYDIIEENQQMKMKRIIYSSLNYKKEKIETLKEILETLKNNPEHQYIAGRLANLSWSIQFKIDDNFETIQNGVDNLDQEKSESLLMRAKSNLQLKERFKKTLNETLEAYSQNAQNIKNDIGILAEHVNKYYKYSDSLKPIFY
notes: also called CspA orthologous protein of B. mayonii; CspA ortholog; not shown: His6, N-terminal, kept
Binder B1 has a Kd of 5.6 ± 0.58 nM.
